Source: paper PMC2063623

Molecular target: pCMV-BD-DLC-1 (human) (UniProt Q96QB1)
Experiment: two-hybrid

Chain of UniProt Q96QB1 (Q96QB1 whole entry): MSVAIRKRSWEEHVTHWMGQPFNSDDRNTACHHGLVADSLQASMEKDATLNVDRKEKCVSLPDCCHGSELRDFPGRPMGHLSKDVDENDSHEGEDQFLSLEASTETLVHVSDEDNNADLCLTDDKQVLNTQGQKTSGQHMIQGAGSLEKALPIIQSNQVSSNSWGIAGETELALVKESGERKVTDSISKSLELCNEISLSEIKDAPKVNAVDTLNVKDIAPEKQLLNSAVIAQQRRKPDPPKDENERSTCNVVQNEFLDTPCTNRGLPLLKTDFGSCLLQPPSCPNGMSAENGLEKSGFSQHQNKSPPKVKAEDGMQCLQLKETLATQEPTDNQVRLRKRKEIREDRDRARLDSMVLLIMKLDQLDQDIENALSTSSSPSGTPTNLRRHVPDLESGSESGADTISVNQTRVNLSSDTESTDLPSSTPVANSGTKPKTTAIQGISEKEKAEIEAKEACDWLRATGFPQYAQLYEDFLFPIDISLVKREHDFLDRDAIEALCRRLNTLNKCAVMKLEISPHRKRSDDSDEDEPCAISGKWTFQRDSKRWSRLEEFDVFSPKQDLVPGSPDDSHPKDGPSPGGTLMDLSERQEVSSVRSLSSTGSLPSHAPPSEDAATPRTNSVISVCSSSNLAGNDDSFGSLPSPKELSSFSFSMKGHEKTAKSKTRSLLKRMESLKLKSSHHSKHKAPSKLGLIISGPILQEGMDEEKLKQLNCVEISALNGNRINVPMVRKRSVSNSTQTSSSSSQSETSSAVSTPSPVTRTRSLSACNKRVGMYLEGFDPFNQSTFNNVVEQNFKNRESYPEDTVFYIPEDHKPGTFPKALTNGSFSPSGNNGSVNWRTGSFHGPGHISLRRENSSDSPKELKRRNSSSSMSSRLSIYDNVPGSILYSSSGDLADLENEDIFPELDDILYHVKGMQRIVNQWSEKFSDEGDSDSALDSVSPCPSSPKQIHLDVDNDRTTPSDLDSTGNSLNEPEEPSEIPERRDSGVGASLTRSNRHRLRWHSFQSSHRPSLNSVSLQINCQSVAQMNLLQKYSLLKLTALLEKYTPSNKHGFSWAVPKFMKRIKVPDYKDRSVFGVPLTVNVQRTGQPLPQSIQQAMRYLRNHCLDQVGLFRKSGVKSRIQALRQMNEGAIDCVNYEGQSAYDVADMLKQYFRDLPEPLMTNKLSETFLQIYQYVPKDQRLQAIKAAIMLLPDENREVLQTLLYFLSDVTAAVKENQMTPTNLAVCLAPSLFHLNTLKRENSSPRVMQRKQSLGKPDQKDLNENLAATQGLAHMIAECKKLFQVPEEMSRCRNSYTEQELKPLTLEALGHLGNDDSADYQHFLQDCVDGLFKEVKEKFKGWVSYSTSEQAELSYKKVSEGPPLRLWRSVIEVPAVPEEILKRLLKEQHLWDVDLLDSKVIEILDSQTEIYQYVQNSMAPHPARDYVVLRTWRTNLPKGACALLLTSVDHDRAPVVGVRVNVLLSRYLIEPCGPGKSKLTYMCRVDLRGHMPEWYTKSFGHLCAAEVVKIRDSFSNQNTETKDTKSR

Substance: pCMV-AD-cten (from UniProt Q8IZW8 1-715) (natural protein)
- fold enhancement of luciferase activity: 4 fold
